# T1: TGFβ2 (transforming growth factor beta 2) (Homo sapiens, UniProt P61812 SEQ:1-112)
# T1 sequence: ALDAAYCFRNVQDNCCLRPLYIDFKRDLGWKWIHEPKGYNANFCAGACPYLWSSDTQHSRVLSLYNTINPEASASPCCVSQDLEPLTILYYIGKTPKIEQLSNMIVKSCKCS
# Columns and labels:
# [1] = target: T1, TGFβ2 (transforming growth factor beta …); assay: filter; 37C; Ki 30 nM in cell assay; conditions: chain copies: 2 (inferred, homodimer)
# Procedure: (§1) The binding activity of individual ligands was determined by measuring the equilibrium dissociation constants using nitrocellulose partitioning of labeled RNA as a function of protein concentration. RNA was body-labeled or guanylated and then 5′-end labeled with γ-³²P ATP and T4 polynucleotide kinase. Binding reactions were set at various protein concentrations (typically varied in either 3-fold or 10-fold increments) while maintaining the labeled RNA concentration constant at less than 0.1 nM, and incubated at 37° C. for 10 minutes. Protein-RNA complexes were partitioned away from uncomplexed RNA, by filtering the binding reactions through a nitrocellulose/cellulose acetated mixed matrix (0.45 μm pore size filter disks, type HA; Millipore, Co., Bedford, Mass.). For filtration, the filters were placed onto a vacuum manifold (12-well, Millipore, or 96-well BRL) and wetted by aspirating 1-5 ml of binding buffer. The binding reactions were aspirated through the filters, washed with 1-5 ml of binding buffer and counted in a scintillation counter (Beckmann).
# [2] = target: T1, TGFβ2 (transforming growth factor beta …); assay: cell_activity; mink lung epithelial cell proliferation; conditions: chain copies: 2 (homodimer, stated)
# Procedure: (§2) The bioactivity of TGFβ2 nucleic acid ligands was measured with mink lung epithelial cells. Proliferation of these cells is inhibited by TGFβ2. Human TGFβ2 was titrated on the cells and ³H-thymidine incorporation was measured. […] This inhibitory amount of TGFβ2 along with varying amounts of nucleic acid ligand (typically 0.3 or 1 nM to 1 or 3 μM, in 3 fold increments) was used. Typically, cells were plated at 10E5/ml in 96-well plates in 100 μl MEM, 10 mM HEPES pH 7.4, 0.2% FBS. […] After incubation, the cells were lysed with 1% Triton X-100 and harvested onto GF/B filter plates in a Packard 96 well plate harvester, and ³H-thymidine incorporation in cellular DNA was quantitated by scintillation counting in MicroScint (Packard, Mariden, Conn.) in a Packard Top-Count. Data were plotted as % of maximum ³H-thymidine incorporation vs RNA concentration, and were fitted by the software Kaleidagraph (Synergy Software, Reading, Pa.) to the equation m3*(m0+m1+(m2)−((m0+m1+(m2))*(m0+m1+(m2))−4*(m0)*( m2)))\hat{ }0.5)/(2*(m2)); where m0 is the concentration of competitor RNA; m1 is the IC50, m2 is the concentration of TGFβ2, and m3 is the plateau value of the fraction of maximum ³H-thymidine incorporation. […]
# [3] = target: T1, TGFβ2 (transforming growth factor beta …); assay: filter; 37C; Ki 230 nM in cell assay; conditions: chain copies: 2 (inferred, homodimer)
# Procedure: as §1
# [4] = target: T1, TGFβ2 (transforming growth factor beta …); assay: cell_activity; mink lung epithelial cell proliferation; text p154 about 200 nM; conditions: chain copies: 2 (homodimer, stated)
# Procedure: as §2
# [5] = target: T1, TGFβ2 (transforming growth factor beta …); assay: filter; 37C; Ki 10 nM in cell assay; conditions: chain copies: 2 (inferred, homodimer)
# Procedure: as §1
# [6] = target: T1, TGFβ2 (transforming growth factor beta …); assay: filter; Table 18 footnote states ~1 nM; Ki ~10 nM; conditions: chain copies: 2 (inferred, homodimer)
# [7] = target: TGFβ1 (transforming growth factor beta 1) (Homo sapiens, UniProt P01137 SEQ:1-112)
# [8] = target: T1, TGFβ2 (transforming growth factor beta …); assay: filter; conditions: chain copies: 2 (inferred, homodimer)
# [9] = target: T1, TGFβ2 (transforming growth factor beta …); assay: cell_activity; mink lung epithelial cell proliferation; conditions: chain copies: 2 (inferred, homodimer)
# Procedure: The bioactivity of TGFβ2 nucleic acid ligands was measured with mink lung epithelial cells. Proliferation of these cells is inhibited by TGFβ2. Human TGFβ2 was titrated on the cells and ³H-thymidine incorporation was measured. […] This inhibitory amount of TGFβ2 along with varying amounts of nucleic acid ligand (typically 0.3 or 1 nM to 1 or 3 μM, in 3 fold increments) was used. Typically, cells were plated at 10E5/ml in 96-well plates in 100 μl MEM, 10 mM HEPES pH 7.4, 0.2% FBS. […] After incubation, the cells were lysed with 1% Triton X-100 and harvested onto GF/B filter plates in a Packard 96 well plate harvester, and ³H-thymidine incorporation in cellular DNA was quantitated by scintillation counting in MicroScint (Packard, Mariden, Conn.) in a Packard Top-Count. Data were plotted as % of maximum ³H-thymidine incorporation vs RNA concentration, and were fitted by the software Kaleidagraph (Synergy Software, Reading, Pa.) to the equation m3*(m0+m1+(m2)−((m0+m1+(m2))*(m0+m1+(m2))−4*(m0)*( m2)))\hat{ }0.5)/(2*(m2)); where m0 is the concentration of competitor RNA; m1 is the IC50, m2 is the concentration of TGFβ2, and m3 is the plateau value of the fraction of maximum ³H-thymidine incorporation.
# Chain of TGFβ1 (transforming growth factor beta 1) (P01137 279-390): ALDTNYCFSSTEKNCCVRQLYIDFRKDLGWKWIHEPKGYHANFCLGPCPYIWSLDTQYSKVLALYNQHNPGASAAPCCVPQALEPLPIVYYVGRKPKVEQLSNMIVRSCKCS
binder,measurement,setting,value
"21a-4 (ssRNA, 2'-F C and U) RNA: GGGAGGACGAUGCGGCGUUGUUUAGUCGUAUGUAUAUACUAAGUCCGCUUGUCCCCAGACGACUCGCCCGA",Kd,[1],~3 nM
"21a-4 (ssRNA, 2'-F C and U; 2'-OH A and G) RNA: GGGAGGACGAUGCGGCGUUGUUUAGUCGUAUGUAUAUACUAAGUCCGCUUGUCCCCAGACGACUCGCCCGA",Ki,[2],30 nM
"14i-1 (ssRNA, 2'-F C and U) RNA: GGGAGGACGAUGCGGAAGUAACGUUGUAGUAAAAUUCGUUCUCUCGGCAUUUGGCCAGACGACUCGCCCGA",Kd,[3],~10 nM
"14i-1 (ssRNA, 2'-F C and U; 2'-OH A and G) RNA: GGGAGGACGAUGCGGAAGUAACGUUGUAGUAAAAUUCGUUCUCUCGGCAUUUGGCCAGACGACUCGCCCGA",Ki,[4],230 nM
"21a-21 (ssRNA, 2'-F C and U) RNA: GGGAGGACGAUGCGGUUCAGGAGGUUAUUACAGAGUCUGUAUAGCUGUACUCCCCAGACGACUCGCCCGA",Kd,[5],~1 nM
"21a-21 (ssRNA, 2'-F C and U; 2'-OH A and G) RNA: GGGAGGACGAUGCGGUUCAGGAGGUUAUUACAGAGUCUGUAUAGCUGUACUCCCCAGACGACUCGCCCGA",Ki,[2],10 nM
"GGAGGUUAUUACAGAGUCUGUAUAGCUGUACUCC (ssRNA, 2'-F C and U; 3'-3' dT cap) [NX22284]",Kd,[6],~2 nM
"GGGUGCCUUUUGCCUAGGUUGUGAUUUGUAACCUUCUGCCCA (ssRNA, 2'-OMe purines at 21, 23-24, 28 and 30) [ChD70-m13]",binding result,[7],binds
"GGAGGUUAUUACAGAGUCUGUAUAGCUGUACUCCCC (ssRNA, 2'-F C and U; 3'-3' dT cap) [NX22283]",binding signal,[8],0.6 x Kd of NX22284
same,Ki,[9],10 nM
